Data reported in article PMC10847126.
pKd: −log10 of the molar value.

What was measured:
[1] = biological target: RGA5-HMA (labelled, MST) (rice) (UniProt F7J0N2); test: MST; […]; 20 mM PBS, 150 mM NaCl, 0.05% Tween-20, pH 7.4; […]
[2] = biological target: RGA5-HMA5 (recombinant, MST and HDX-MS) (rice) (UniProt F7J0N2); test: as above

In the case of “AVR-Pia (recombinant, MST) (from UniProt B9WZW9) (natural protein; other documents disagree on this pair)”, the pKd [1] was 4.46.
“AVR-PikD (recombinant, MST and HDX-MS) (natural protein)” showed a pKd [2] of 4.92.
